Publication PMC5595295 (Acta Pharmaceutica Sinica. B, 2017)
Positions count from the first letter of the chain named. Names and notes keep the numbering of the source.

B1: hA3G W127A-EYFP (natural protein, human, UniProt Q9HC16 1-384, looked up)
chain: MKPHFRNTVERMYRDTFSYNFYNRPILSRRNTVWLCYEVKTKGPSRPPLDAKIFRGQVYSELKYHPEMRFFHWFSKWRKLHRDQEYEVTWYISWSPCTKCTRDMATFLAEDPKVTLTIFVARLYYFADPDYQEALRSLCQKRDGPRATMKIMNYDEFQHCWSKFVYSQRELFEPWNNLPKYYILLHIMLGEILRHSMDPPTFTFNFNNEPWVRGRHETYLCYEVERMHNDTWVLLNQRRGFLCNQAPHKHGFLEGRHAELCFLDVIPFWKLDLDQDYRVTCFTSWSPCFSCAQEMAKFISKNKHVSLCIFTARIYDDQGRCQEGLRTLAEAGAKISIMTYSEFKHCWDTFVDHQGCPFQPWDGLDEHSQDLSGRLRAILQNQEN
B2: hA3G Y124A-EYFP (natural protein, human, UniProt Q9HC16 1-384, looked up)
chain: B1 chain with Y124A, A127W

Target: hA3G-HA (human, UniProt Q9HC16 1-384)
Experiment: co-IP

Binder | percent inhibition of binding to wild type hA3G (co-IP, band quantification)
B1 | ~80%
B2 | < 50%
